# B1: Keratin, type II cytoskeletal 6A (Homo sapiens), P02538 (parent)
# chain: MASTSTTIRSHSSSRRGFSANSARLPGVSRSGFSSVSVSRSRGSGGLGGACGGAGFGSRSLYGLGGSKRISIGGGSCAISGGYGSRAGGSYGFGGAGSGFGFGGGAGIGFGLGGGAGLAGGFGGPGFPVCPPGGIQEVTVNQSLLTPLNLQIDPTIQRVRAEEREQIKTLNNKFASFIDKVRFLEQQNKVLETKWTLLQEQGTKTVRQNLEPLFEQYINNLRRQLDSIVGERGRLDSELRGMQDLVEDFKNKYEDEINKRTAAENEFVTLKKDVDAAYMNKVELQAKADTLTDEINFLRALYDAELSQMQTHISDTSVVLSMDNNRNLDLDSIIAEVKAQYEEIAQRSRAEAESWYQTKYEELQVTAGRHGDDLRNTKQEIAEINRMIQRLRSEIDHVKKQCANLQAAIADAEQRGEMALKDAKNKLEGLEDALQKAKQDLARLLKEYQELMNVKLALDVEIATYRKLLEGEECRLNGEGVGQVNISVVQSTVSSGYGGASGVGSGLGLGGGSSYSYGSGLGVGGGFSSSSGRAIGGGLSSVGGGSSTIKYTTTSSSSRKSYKH
# partner: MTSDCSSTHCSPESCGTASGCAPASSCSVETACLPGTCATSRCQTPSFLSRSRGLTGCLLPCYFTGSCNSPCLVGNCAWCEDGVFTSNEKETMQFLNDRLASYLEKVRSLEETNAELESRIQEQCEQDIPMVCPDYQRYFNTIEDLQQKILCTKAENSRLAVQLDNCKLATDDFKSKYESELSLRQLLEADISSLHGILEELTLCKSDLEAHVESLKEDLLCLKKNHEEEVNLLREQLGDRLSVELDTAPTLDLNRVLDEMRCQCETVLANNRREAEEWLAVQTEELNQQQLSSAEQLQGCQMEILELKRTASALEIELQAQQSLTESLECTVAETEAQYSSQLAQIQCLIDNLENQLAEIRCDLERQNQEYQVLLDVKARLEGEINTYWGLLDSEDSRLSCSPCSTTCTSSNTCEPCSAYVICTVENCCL
# B2: Chorion-specific transcription factor GCMb (Homo sapiens), O75603 (parent)
# chain: MPAAAVQEAVGVCSYGMQLSWDINDPQMPQELALFDQFREWPDGYVRFIYSSDEKKAQRHLSGWAMRNTNNHNGHILKKSCLGVVVCTQACTLPDGSRLQLRPAICDKARLKQQKKACPNCHSALELIPCRGHSGYPVTNFWRLDGNAIFFQAKGVHDHPRPESKSETEARRSAIKRQMASFYQPQKKRIRESEAEENQDSSGHFSNIPPLENPEDFDIVTETSFPIPGQPCPSFPKSDVYKATCDLATFQGDKMPPFQKYSSPRIYLPRPPCSYELANPGYTNSSPYPTLYKDSTSIPNDTDWVHLNTLQCNVNSYSSYERSFDFTNKQHGWKPALGKPSLVERTNHGQFQAMATRPYYNPELPCRYLTTPPPGAPALQTVITTTTKVSYQAYQPPAMKYSDSVREVKSLSSCNYAPEDTGMSVYPEPWGPPVTVTRAASPSGPPPMKIAGDCRAIRPTVAIPHEPVSSRTDEAETWDVCLSGLGSAVSYSDRVGPFFTYNNEDF
# partner: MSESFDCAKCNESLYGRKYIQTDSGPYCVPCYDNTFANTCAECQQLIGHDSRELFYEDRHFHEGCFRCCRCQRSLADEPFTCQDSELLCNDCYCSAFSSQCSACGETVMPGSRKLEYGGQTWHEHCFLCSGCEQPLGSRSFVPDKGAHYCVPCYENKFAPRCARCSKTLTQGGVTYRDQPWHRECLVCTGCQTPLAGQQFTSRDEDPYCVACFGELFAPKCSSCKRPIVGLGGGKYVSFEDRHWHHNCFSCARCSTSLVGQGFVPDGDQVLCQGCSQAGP
# B3: Keratin, type II cytoskeletal 6A (Homo sapiens), P02538 (parent)
# chain: B1 chain
# partner: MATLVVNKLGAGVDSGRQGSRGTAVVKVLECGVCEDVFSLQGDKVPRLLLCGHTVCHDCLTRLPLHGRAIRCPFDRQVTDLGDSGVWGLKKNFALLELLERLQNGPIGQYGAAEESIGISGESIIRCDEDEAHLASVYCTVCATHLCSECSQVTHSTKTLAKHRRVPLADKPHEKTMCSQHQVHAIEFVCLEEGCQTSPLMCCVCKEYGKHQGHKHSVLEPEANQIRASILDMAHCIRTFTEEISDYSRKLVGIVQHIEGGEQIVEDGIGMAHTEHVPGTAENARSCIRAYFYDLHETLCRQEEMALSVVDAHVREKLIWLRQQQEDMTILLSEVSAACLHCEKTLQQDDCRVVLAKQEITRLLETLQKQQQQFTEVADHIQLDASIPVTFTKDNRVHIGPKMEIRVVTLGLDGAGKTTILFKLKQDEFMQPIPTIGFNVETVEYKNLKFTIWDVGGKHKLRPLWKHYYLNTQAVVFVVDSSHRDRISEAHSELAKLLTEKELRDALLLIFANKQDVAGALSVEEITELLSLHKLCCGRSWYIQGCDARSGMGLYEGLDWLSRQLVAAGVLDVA
# Variants of: B1
# Conditions: with KRT40, Q6A162
row,Variant,effect of a mutation on the interaction
1,MASTSTTIRSHSSSRRGFSANSARLPGVSRSGFSSVSVSRSRGSGGLGGACGGAGFGSRSLYGLGGSKRISIGGGSCAISGGYGSRAGGSYGFGGAGSGFGFGGGAGIGFGLGGGAGLAGGFGGPGFPVCPPGGIQEVTVNQSLLTPLNLQIDPTIQRVRAEEREQIKTLNNKFASFIDKVRFLEQQNKVLETKWTLLQEQGTKTVRQNLEPLFEQYINNLRRQLDSIVGERGRLDSELRGMQDLVEDFKNKYEDEINKRTAAENEFVTLKKDVDAAYMNKVELQAKADTLTDEINFLRALYDAELSQMQTHISDTSVVLSMDNNRNLDLDSIIAEVKAQYEEIAQRSRAEAESWYQTKYEELQVTAGRHGDDLRNTKQEIAEINRMIQRLRSEIDHVKKQCANLQAAIADAEQRGEMALKDAKNKLEGLEDALQKAKQDLARLLKEYQELMNVKLALDVESATYRKLLEGEECRLNGEGVGQVNISVVQSTVSSGYGGASGVGSGLGLGGGSSYSYGSGLGVGGGFSSSSGRAIGGGLSSVGGGSSTIKYTTTSSSSRKSYKH [I462S],disrupting interaction

# Variants of: B2
# Conditions: with fhl3_human FHL3, Q13643
row,Variant,effect of a mutation on the interaction
1,MPAAAVQEAVGVCSYGMQLSWDINDPQMPQELALFDQFREWPDGYVLFIYSSDEKKAQRHLSGWAMRNTNNHNGHILKKSCLGVVVCTQACTLPDGSRLQLRPAICDKARLKQQKKACPNCHSALELIPCRGHSGYPVTNFWRLDGNAIFFQAKGVHDHPRPESKSETEARRSAIKRQMASFYQPQKKRIRESEAEENQDSSGHFSNIPPLENPEDFDIVTETSFPIPGQPCPSFPKSDVYKATCDLATFQGDKMPPFQKYSSPRIYLPRPPCSYELANPGYTNSSPYPTLYKDSTSIPNDTDWVHLNTLQCNVNSYSSYERSFDFTNKQHGWKPALGKPSLVERTNHGQFQAMATRPYYNPELPCRYLTTPPPGAPALQTVITTTTKVSYQAYQPPAMKYSDSVREVKSLSSCNYAPEDTGMSVYPEPWGPPVTVTRAASPSGPPPMKIAGDCRAIRPTVAIPHEPVSSRTDEAETWDVCLSGLGSAVSYSDRVGPFFTYNNEDF [R47L],disrupting interaction

# Variants of: B3
# Conditions: with tri23_human TRIM23, P36406
row,Variant,effect of a mutation on the interaction
1,MASTSTTIRSHSSSRRGFSANSARLPGVSRSGFSSVSVSRSRGSGGLGGACGGAGFGSRSLYGLGGSKRISIGGGSCAISGGYGSRAGGSYGFGGAGSGFGFGGGAGIGFGLGGGAGLAGGFGGPGFPVCPPGGIQEVTVNQSLLTPLNLQIDPTIQRVRAEEREQIKTLNNKFASFIDKVRFLEQQNKVLETKWTLLQEQGTKTVRQNLEPLFEQYINNLRRQLDSIVGERGRLDSELRGMQDLVEDFKNKYEDEINKRTAAENEFVTLKKDVDAAYMNKVELQAKADTLTDEINFLRALYDAELSQMQTHISDTSVVLSMDNNRNLDLDSIIAEVKAQYEEIAQRSRAEAESWYQTKYEELQVTAGRHGDDLRNTKQEIAEINRMIQRLRSEIDHVKKQCANLQAAIADAEQRGEMALKDAKNKLEGLEDALQKAKQDLARLLKEYQELMNVKLALDVESATYRKLLEGEECRLNGEGVGQVNISVVQSTVSSGYGGASGVGSGLGLGGGSSYSYGSGLGVGGGFSSSSGRAIGGGLSSVGGGSSTIKYTTTSSSSRKSYKH [I462S],disrupting interaction

# — IntAct's records for PubMed 25416956
